According to paper PMC7015241:
Like-named read-outs stand apart in the source and are kept apart here. One block for each substance: values may come before it.

What was measured:
[1] = biological target: Filamentous actin (F-actin) (rabbit) (UniProt P68135); test: co-sedimentation; 1–30 μM polymerized actin incubated with 10 μM MYPN Ig3, Ig4 or Ig3–4 domain for 1 h in 100 μL, 150 000×g for 30 min; SDS-PAGE of supernatants and pellets, densitometry; F-buffer (Tris, KCl, MgCl2, DTT, pH 8.0)
[2] = biological target: F-actin (Oryctolagus cuniculus) (UniProt P68135); details: cited from earlier work
[3] = biological target: F-actin (Oryctolagus cuniculus) (UniProt P68135); details: cited from earlier work; remark: listed apart in the source

- Kd [1]: 7.6 µM
Substance: Myopalladin (MYPN) Ig3 domain (domain or fragment)

Substance: PALLD Ig3 (from UniProt Q9ET54)
- Kd [2]: 70 µM

Substance: PALLD Ig3-4 (from UniProt Q9ET54)
- Kd [3]: 9 µM
